These results are taken from article PMC5454376 (2017).

Read-outs that look alike come from different tables or passages of the source. Where no end group is shown, it is not given here.

One experiment has as its target Human His-Gαi3 S252A (human, UniProt P08754 1-354, S252 mutated to A). Kind of experiment: FP.
The next experiment has as its target Human His-Gαi3 L249H (human, UniProt P08754 1-354, L249H). Briefly: FP.
The target in the next experiment is T1, Gαi3 L249V (Homo sapiens).
T1 chain: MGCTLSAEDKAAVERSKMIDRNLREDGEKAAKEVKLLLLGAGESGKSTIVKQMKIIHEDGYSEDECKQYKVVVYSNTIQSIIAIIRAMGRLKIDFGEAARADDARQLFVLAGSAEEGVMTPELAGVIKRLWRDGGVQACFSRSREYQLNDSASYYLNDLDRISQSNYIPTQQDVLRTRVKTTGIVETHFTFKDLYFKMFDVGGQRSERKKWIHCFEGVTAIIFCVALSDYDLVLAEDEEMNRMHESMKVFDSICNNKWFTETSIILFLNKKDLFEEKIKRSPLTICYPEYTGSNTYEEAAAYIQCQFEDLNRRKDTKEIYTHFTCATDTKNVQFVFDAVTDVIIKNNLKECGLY
Kind of experiment: FP.

Experiment [1] addresses T2, Human His-Gαi3 WT (human, UniProt P08754 1-354).
T2 chain: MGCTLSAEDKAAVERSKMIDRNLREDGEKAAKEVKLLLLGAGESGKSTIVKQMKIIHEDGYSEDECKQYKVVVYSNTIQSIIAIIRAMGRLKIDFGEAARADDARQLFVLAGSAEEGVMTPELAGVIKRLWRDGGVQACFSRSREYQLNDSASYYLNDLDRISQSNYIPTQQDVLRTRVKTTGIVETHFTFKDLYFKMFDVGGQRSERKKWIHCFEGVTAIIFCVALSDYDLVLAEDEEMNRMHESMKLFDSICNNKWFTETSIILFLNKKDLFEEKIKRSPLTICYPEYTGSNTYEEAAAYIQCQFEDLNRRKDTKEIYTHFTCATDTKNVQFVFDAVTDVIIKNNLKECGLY
Briefly: FP.

In a further experiment the target is Human His-Gαi3 S252D (human, UniProt P08754 1-354, S252D). Kind of experiment: FP.
The next experiment has as its target Human His-Gαi3 W211A (human, UniProt P08754 1-354, W211A). Briefly: FP.
Experiment [2] deals with Human His-Gαi3 W258 mutant (human, UniProt P08754 1-354). Briefly: FP.
For experiment [3], the target named is Human His-Gαi3 L36 mutant (human, UniProt P08754 1-354). Kind of experiment: FP.
In experiment [4] the target is Human His-Gαi3 I184 mutant (human, UniProt P08754 1-354). Briefly: FP.
Experiment [5] deals with Human His-Gαi3 L39 mutant (human, UniProt P08754 1-354). Briefly: FP.
For experiment [6], the target named is Human His-Gαi3 V218 mutant (human, UniProt P08754 1-354). Briefly: FP.
Experiment [7] has as its target Human His-Gαi3 L37 mutant (human, UniProt P08754 1-354). Kind of experiment: FP.
For experiment [8], the target named is Human His-Gαi3 G42 mutant (human, UniProt P08754 1-354). Briefly: FP.
In experiment [9] the target is Human His-Gαi3 F259 mutant (human, UniProt P08754 1-354). Briefly: FP.
The target in experiment [10] is Human His-Gαi3 K257 mutant (human, UniProt P08754 1-354). Kind of experiment: FP.
A further experiment deals with Human His-Gαi3 N256A (human, UniProt P08754 1-354, N256 mutated to A). Briefly: FP.
The target in experiment [11] is T3, Human His-Gαi3 K317 mutant (human, UniProt P08754 1-354). Kind of experiment: FP; K317W.
In experiment [12] the target is T4, Full-length human Gαi3, untagged (NMR sample) (human, UniProt P08754 1-354).
T4 chain: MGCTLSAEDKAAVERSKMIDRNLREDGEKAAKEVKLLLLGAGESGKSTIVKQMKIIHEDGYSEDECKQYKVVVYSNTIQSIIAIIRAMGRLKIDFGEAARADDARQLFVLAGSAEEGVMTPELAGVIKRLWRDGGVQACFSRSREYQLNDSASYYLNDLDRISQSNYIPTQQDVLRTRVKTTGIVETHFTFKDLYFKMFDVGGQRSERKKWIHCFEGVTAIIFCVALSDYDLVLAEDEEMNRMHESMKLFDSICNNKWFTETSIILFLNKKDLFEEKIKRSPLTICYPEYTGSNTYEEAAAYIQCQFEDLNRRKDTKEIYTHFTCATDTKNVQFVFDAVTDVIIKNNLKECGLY
Briefly: FP; His-tag cleaved Gαi3.

Experiment [13] deals with T2, Human His-Gαi3 WT. Briefly: FP.
The target of experiment [14] is T5, Human His-Gαi3 ΔC9 (lacking the last nine residues) (human, UniProt P08754 1-345).
T5 chain: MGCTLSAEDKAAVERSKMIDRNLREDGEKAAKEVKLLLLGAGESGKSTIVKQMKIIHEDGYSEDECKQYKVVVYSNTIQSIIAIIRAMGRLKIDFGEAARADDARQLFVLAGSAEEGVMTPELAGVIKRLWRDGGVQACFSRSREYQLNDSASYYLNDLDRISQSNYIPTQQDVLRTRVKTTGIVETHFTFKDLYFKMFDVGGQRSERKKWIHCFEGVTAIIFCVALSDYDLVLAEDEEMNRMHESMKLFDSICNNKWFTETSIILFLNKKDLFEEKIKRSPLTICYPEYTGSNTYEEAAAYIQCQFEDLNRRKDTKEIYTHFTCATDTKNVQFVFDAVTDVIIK
Briefly: FP.

For experiment [15], the target named is T3, Human His-Gαi3 K317 mutant. Kind of experiment: FP; K317A.
Experiment [16] has as its target T2, Human His-Gαi3 WT. Briefly: FP.
For experiment [17], the target named is Human His-Gαi3 R313 mutant (human, UniProt P08754 1-354). Kind of experiment: FP.

B1: Fluorescein-labelled RGS12 GoLoco peptide (residues 1,185–1,221) (peptide)
peptide: DEAEEFFELISKAQSNRADDQRGLLRKEDLVLPEFLR
modifications: not fully specified (N-terminus); also: 5,6-carboxyfluorescein coupled to resin-bound peptide after elongation, site not given here
Usually Kd stands for the concentration at which binding is half-saturated. Lower therefore signals tighter binding. On to B1, for which the dissociation constant (Kd) is 35 nM in the experiment with Human His-Gαi3 S252A; 266 nM with Human His-Gαi3 L249H; 84 nM in the experiment with Gαi3 L249V; 54 nM with Human His-Gαi3 WT [1]; 336 nM with Human His-Gαi3 S252D; 61 nM with Human His-Gαi3 W211A. In addition, the Kd in [2] was found to be 63 nM; in experiment [3] it was 119 nM; in experiment [4] it was 83 nM; in [5], 176 nM; in [6], 104 nM; in experiment [7], 80 nM. Moreover, the Kd in [8] came to 98 nM; in [9], 187 nM; in experiment [10], 86 nM.

B2: Fluorescein-labelled GIV peptide (residues 1,671–1,701) (peptide)
peptide: KTGSPGSEVVTLQQFLEESNKLTSVQIKSSS
modifications: not fully specified (N-terminus); also: 5,6-carboxyfluorescein coupled to resin-bound peptide after elongation, site not given here
For B2, the dissociation constant (Kd) with Human His-Gαi3 L249H turned out to be 4410 nM; with Gαi3 L249V, 1370 nM; with Human His-Gαi3 WT [1], 581 nM; with Human His-Gαi3 S252D it was 3090 nM; with Human His-Gαi3 N256A, 1040 nM; in experiment [11], 510 nM. Moreover, the Kd in experiment [12] stood at 680 nM; in the experiment with Human His-Gαi3 WT [13], 580 nM; in experiment [14], 700 nM; in [15], 590 nM; in [2], 1820 nM; in experiment [3], 706 nM. Also, the Kd in [4] is 1910 nM; in [5], 3080 nM; in experiment [6] it was 362 nM; in experiment [7] it was 478 nM; in experiment [8] it was 377 nM; in experiment [9] it was 1260 nM. Besides, the results for the Kd (in experiment [10]; with Human His-Gαi3 WT [16]; in [17]) were 870 nM, 580 nM and 800 nM, respectively.
